# B1: pUCBMDAT: wild-type D-aminotransferase derived from Bacillus macerans AJ1617 (SEQ ID NO:2), expressed in E. coli (protein)
# chain: MAYSLWNDQIVEEGSIAISPEDRGYQFGDGIYEVIKVYNGNMFTAQEHIDRFYASAEKIRLVIPYTKDVLHKLLHELIEKNNLETGHVYFQITRGANSRNHVFPDASIPAVLTGNVKAGERAYENFEKGVKATFVEDIRWLRCDIKSLNLLGAVLAKQEAAEKGCYEAILHRGDIVTECSSANVYGIKDGKLYTHPANNFILNGITRQVILKCAEEINLPVIEEPMTKADLLTMDEIIVSSVSSEVTPVIDVDGNQIGAGVPGEWTRQLQQSFEAKLPLSMNTK
# modifications: Bacillus macerans
# B2: PUCBSDAT: wild-type D-transaminase derived from Bacillus sphaericus ATCC 10208 (SEQ ID NO:4), expressed in E. coli (protein, listed as Bacillus sphaericus)
# chain: MAYSLWNDQIVEEGSITISPEDRGYQFGDGIYEVIKVYNGHMFTAQEHIDRFYASAEKIRLVIPYTKDVLHKLLHDLIEKNNLNTGHVYFQITRGTTSRNHIFPDASVPAVLTGNVKTGERSIENFEKGVKATLVEDVRWLRCDIKSLNLLGAVLAKQEASEKGCYEAILHRGDIITECSSANVYGIKDGKLYTHPANNYILNGITRQVILKCAAEINLPVIEEPMTKGDLLTMDEIIVSSVSSEVTPVIDVDGQQIGAGVPGEWTRKLQKAFEAKLPISINA
# Experiments:
# [1] = Stability of IHOG in amination reaction solution with no microbial cell addition; assay type: physicochemical; settings: 300 mM 4R,S-IHOG, pH 8.3, 37° C., no cells
# Method: Another reason therefor would be instability of IHOG, the material for producing monatin, in a certain pH. In order to test stability of IHOG in the amination reaction of IHOG, the present inventors measured a change of IHOG concentration with time in an amination reaction solution of IHOG with no microbial cell addition. The reaction was performed by shaking a test tube containing 1 ml of reaction solution composed of 100 mM potassium phosphate buffer (pH 8.3), 300 mM 4R,S-IHOG, 600 mM DL-Ala and 1 mM pyridoxal-5′-phosphate at 37° C. for 40 hours. As a result, a residual ratio of 4R,S-IHOG was decreased to 81% after 16 hours, 70% after 24 hours and 57% after 40 hours, respectively. […] It is presumed that this phenomenon is due to a decomposition reaction where IHOG is decomposed into 3-indole-pyruvic acid and pyruvic acid and a cyclization reaction of IHOG, to consume IHOG in the reaction solution before being converted to monatin. That is, the reaction catalyzed by the D-aminotransferase derived from the genus Bacillus or Paenibacillus is not sufficiently fast, and a part of IHOG becomes unavailable for the amination due to the decomposition and the cyclization before the amination. This is thought to be one reason why (2R,4R) monatin can not be efficiently produced.
# [2] = PHOG amination reaction with mutated BMDAT-expressing E. coli (Example 10); assay type: biochemical; settings: 100 mM 4R,S-PHOG, 16 hours
# Method: (§1) Using a series of mutated BMDAT-expressing E. coli strains prepared in Example 9, 2R-monatin was produced from 4R,S-IHOG, and 2R-PHG was produced from 4R,S-PHOG. The microbial cells prepared by centrifuging 400 μL of the cultured medium were suspended in a reaction solution having the following composition.
# Reaction solution of PHOG: 100 mM Tris-HCl (pH 8.0), 100 mM 4R,S-PHOG, 400 mM D-alanine, 1 mM pyridoxal-5′-phosphate and 0.5% (v/v) toluene
# (§2) The suspension was incubated at 30° C. for 16 hours, and then the amount of 2R-monatin and 2R-PHG thus produced were analyzed.
# [3] = IHOG amination reaction with mutated BMDAT-expressing E. coli (Example 10); assay type: biochemical; settings: 100 mM 4R,S-IHOG, 16 hours
# Method: as §1
# Reaction solution of IHOG: 100 mM Tris-HCl (pH 8.0), 100 mM 4R,S-IHOG, 400 mM D-alanine, 1 mM pyridoxal-5′-phosphate and 0.5% (v/v) toluene
# as §2
# [4] = IHOG amination with washed cells of BMDAT-expressing E. coli (Example 3); assay type: biochemical; settings: 50 mM IHOG, 200 mM D-alanine, pH 8.0, 33° C., 16 hours, cells 2% (w/v)
# Method: (§3) E. coli transformants with pUCBMDAT were inoculated to 3 mL of LB medium (1 g/dL of bacto tryptone, 0.5 g/dL of yeast extract and 1 g/dL of NaCl) containing 0.1 mg/mL of ampicillin and 0.1 mM isopropyl-1-thio-β-D-galactopyranoside (IPTG). The medium was then cultured with shaking at 37° C. for 16 hours. Cells were collected from the cultured medium and washed to prepare cells of the BMDAT-expressing E. coli.
# The microbial cells prepared in (1) above were suspended at 2% (w/v) in 1 mL of a reaction liquid composed of 100 mM Tris-HCl (pH 8.0), 50 mM IHOG, 200 mM D-alanine, 1 mM pyridoxal-5′-phosphate and 0.5% (v/v) toluene. The suspension was then incubated with shaking at 33° C. for 16 hours, and the amount of 2R-monatin thus produced was determined. As a result, 16.4 mM of (2R,4S)-monatin and 17.0 mM of (2R,4R)-monatin were produced.
# [5] = Amination reaction of IHOG with mutated BMDAT-expressing E. coli (Example 5); assay type: biochemical; settings: 50 mM 4R,S-IHOG, 16 hours
# Method: (§4) E. coli transformants containing each plasmid with mutated BMDAT gene or pUCBMDAT were inoculated to 3 mL of LB medium (1 g/dL of bacto tryptone, 0.5 g/dL of yeast extract and 1 g/dL of NaCl) containing 0.1 mg/mL of ampicillin and 0.1 mM isopropyl-1-thio-β-D-galactopyranoside (IPTG). The medium was then cultured with shaking at 37° C. for 16 hours. Cells were harvested from the cultured medium and washed Expression of each mutated BMDAT was confirmed with SDS-PAGE. Cells harvested form 250 μL of the cultured broth were resuspended in 500 μL of an SDS-PAGE sample buffer and boiled for 10 minutes for cell lysis and denaturation. 5 to 10 μL of the supernatant obtained by centrifugation (10,000×g, 10 min.) was subjected to SDS-PAGE.
# (§5) Using a series of mutated BMDAT-expressing E. coli strains prepared in Example 4 as a catalyst, 2R-monatin was produced from 4R,S-IHOG, and 2R-PHG was produced from 4R,S-PHOG. The microbial cells collected by centrifuging 400 μL of the cultured medium were suspended in a reaction solution having the following composition.
# (§6) Reaction solution of IHOG: 100 mM Tris-HCl (pH 8.0), 50 mM 4R,S-IHOG, 200 mM D-alanine, 1 mM pyridoxal-5′-phosphate and 0.5% (v/v) toluene
# (§7) The suspension was incubated at 30° C. for 16 hours, and then the amount of 2R-monatin and 2R-PHG thus produced were determined.
# [6] = PHOG amination with washed cells of BMDAT-expressing E. coli (Example 3); assay type: biochemical; settings: 50 mM PHOG, 200 mM D-alanine, pH 8.0
# Method: as §3
# The reaction was also performed in a reaction liquid composed of 100 mM Tris-HCl (pH 8.0), 50 mM PHOG, 200 mM D-alanine, 1 mM pyridoxal-5′-phosphate and 0.5% (v/v) toluene. The amount of 2R-PHG thus produced after the incubation was determined. As a result, 17.1 mM of (2R,4S)-PHG and 19.2 mM of (2R,4R)-PHG were produced.
# [7] = DAT activity of mutated BMDAT: transamination from D-alanine to α-ketoglutaric acid, coupled lactate dehydrogenase assay; assay type: biochemical, E. coli; settings: 10 mM D-alanine, 10 mM α-ketoglutaric acid, pH 8.0, 30° C., cell sonicate supernatant
# Method: E. coli transformants containing each plasmid with mutated BMDAT gene or pUCBMDAT were inoculated to 3 mL of casamino acid medium (0.5 g/dL of ammonium sulfate, 0.14 g/dL of KH2PO4, 0.23 g/dL of citrate 2Na.3H2O, 0.1 g/dL of MgSO4.7H2O, 2 mg/dl of FeSO4, 2 mg/dl of MnSO4, 2 mg/dL of pyridoxine hydrochloride, 0.1 mg/dL of thiamine, 1 g/dL of casamino acid, 0.3 g/dL of glycerol, pH 7.5) containing 0.1 mg/mL of ampicillin and 0.1 mM IPTG. The medium was then cultured with shaking at 37° C. for 16 hours. Cells were collected from 1 mL of the cultured medium, washed, suspended in 1 mL of 20 mM Tris-HCl (pH 7.6), and ultrasonically disrupted at 4° C. for 30 min. The sonicates were centrifuged at 15,000 rpm for 5 minutes, and the supernatant thereof was used as an enzyme catalyst. For the measurement of the D-aminotransferase activity (hereinbelow referred to as DAT activity), the transamination activity with D-alanine as the amino donor to α-ketoglutaric acid was enzymatically measured by analyzing pyruvic acid produced from D-alanine as the reaction proceeds.
# Reaction conditions: 100 mM Tris-HCl (pH 8.0), 0.2 mM NADH, 0.1 mM pyridoxal-5′-phosphate, 5 U/mL lactate dehydrogenase, 10 mM D-alanine, 10 mM α-ketoglutaric acid, 30° C. A reduction of absorbance at 340 nm was measured.
# [8] = Amination reaction of PHOG with mutated BMDAT-expressing E. coli (Example 5); assay type: biochemical; settings: 50 mM 4R,S-PHOG, 16 hours
# Method: as §4, §5
# Reaction solution of PHOG: 100 mM Tris-HCl (pH 8.0), 50 mM 4R,S-PHOG, 200 mM D-alanine, 1 mM pyridoxal-5′-phosphate and 0.5% (v/v) toluene
# as §7
# [9] = IHOG amination with washed cells of BSDAT-expressing E. coli (Example 6); assay type: biochemical; settings: 50 mM IHOG, 200 mM D-alanine, pH 7.6, 30° C., 18 hours, cells 5% (w/v)
# Method: E. coli transformants containing pUCBSDAT were cultivated in the LB medium (1 g/dL of bacto tryptone, 0.5 g/dL of yeast extract and 1 g/dL of NaCl) containing 0.1 mg/mL of ampicillin at 37° C. for 16 hours. Subsequently, 1 mL of thus obtained broth was added to a 500 mL Sakaguchi flask in which contains 50 mL of the LB medium, and main cultivation was performed at 37° C. After 2.5 hours of cultivation, isopropyl-1-thio-β-D-galactopyranoside (IPTG) was added thereto at a final concentration of 1 mM, and the cultivation was performed for additional 4 hours. Cells were harvested from the cultured medium and washed to prepare the cells of BSDAT-expressing E. coli.
# The microbial cells prepared in the above (2) were suspended at 5% (w/v) in 1 mL of a reaction liquid composed of 100 mM Tris-HCl (pH 7.6), 50 mM IHOG, 200 mM D-alanine, 1 mM pyridoxal-5′-phosphate and 0.5% (v/v) toluene. One ml of the suspension was then transferred to a 10 mL test tube, and incubated with shaking at 30° C. for 18 hours. After the incubation, the amount of 2R-monatin thus produced was determined. As a result, 13.8 mM (2R,4R)-monatin and 12.7 mM (2R,4S)-monatin were produced from IHOG.
# [10] = IHOG amination reaction with mutated BSDAT-expressing E. coli (Example 8); assay type: biochemical; settings: 50 mM 4R,S-IHOG, 16 hours
# Method: E. coli transformants containing each plasmid with mutated BSDAT gene or pUCBSDAT were inoculated to 3 mL of LB medium (1 g/dL of bacto tryptone, 0.5 g/dL of yeast extract and 1 g/dL of NaCl) containing 0.1 mg/mL of ampicillin and 0.1 mM isopropyl-1-thio-β-D-galactopyranoside (IPTG). The medium was then cultured with shaking at 37° C. for 16 hours. Cells were collected from the cultured medium and washed to prepare the BSDAT-expressing E. coli. Expression of each mutated BSDAT was confirmed by SDS-PAGE. The cells harvested from 250 μL of the cultured medium were resuspended in 500 μL of an SDS-PAGE sample buffer and boiled for 10 minutes for cell lysis and denaturation, and 5 to 10 μL of the supernatant obtained by centrifugation (10,000×g, 10 min.) was subjected to SDS-PAGE.
# Using a series of mutated BSDAT-expressing E. coli strains prepared in Example 7, 2R-monatin was produced from 4R,S-IHOG. The microbial cells prepared by centrifuging 400 μL of the cultured medium were suspended in the reaction solution having the following composition.
# as §6
# The suspension was incubated at 30° C. for 16 hours, and then the amount of 2R-monatin thus produced was analyzed.
# [11] = 400 mM D-alanine, pH 8.0, 30° C.
# [12] = 200 mM D-alanine, pH 8.0, 30° C.
molecule,measurement,setting,value
"O=C(O)C(=O)CC(O)(Cc1c[nH]c2ccccc12)C(=O)O (racemic) [4R,S-IHOG, 4-(indol-3-ylmethyl)-4-hydroxy-2-oxoglutaric acid]","residual ratio of 4R,S-IHOG",[1]; after 16 hours,81%
same,"residual ratio of 4R,S-IHOG",[1]; after 24 hours,70%
B1,"2R,4R-PHG",[2]; [11],34.2 mM
same,"2R,4S-PHG",[2]; [11],34.9 mM
same,4R selectivity,[2]; 30° C.,49%
same,"2R,4R-monatin",[3]; [11],19.1 mM
same,"2R,4S-monatin",[3]; [11],18.3 mM
same,4R selectivity,[3]; 30° C.,51%
same,"(2R,4R)-monatin produced",[4],17.0 mM
same,"(2R,4S)-monatin produced",[4],16.4 mM
same,"2R,4R-monatin",[5]; [12],17.0 mM
same,"2R,4S-monatin",[5]; [12],16.4 mM
same,"4R selectivity (ratio of (2R,4R) isomer out of total 2R-monatin)",[5]; 30° C.,51%
same,"(2R,4R)-PHG produced",[6],19.2 mM
same,"(2R,4S)-PHG produced",[6],17.1 mM
same,DAT activity,[7],6.3 U/mg
same,"2R,4R-PHG",[8]; [12],19.2 mM
same,"2R,4S-PHG",[8]; [12],17.1 mM
same,"4R selectivity (ratio of (2R,4R) isomer out of total 2R-PHG)",[8]; 30° C.,53%
B2,"(2R,4R)-monatin produced",[9],13.8 mM
same,"(2R,4S)-monatin produced",[9],12.7 mM
same,"2R,4R-monatin",[10]; [12],13.8 mM
same,"2R,4S-monatin",[10]; [12],12.7 mM
same,4R selectivity,[10]; 30° C.,52%
